The values that follow come from patent US20160362460A1 (Pieris, published 2016).

Where a chain is given by its changes, count along the chain named.

B1: lipocalin mutein SEQ ID NO: 62 (designed binder)
chain: QDSTSDLIPAPPLSKVPLQQNFQDNQFQGKWYVVGLAGNRILRDDQHPMPMYATIYELKGDKSYNVTSVISSHKKCLYPIATFVPGSQPGEFTLGNIKSYGDKWSYLVRVVSTDYNQYAVVFFKHADSNYESFSITIYGRTKELASELKENFIRFSKSLGLPENHIVFPVPIDQCIDG
B2: CTLA-4 specific lipocalin mutein (SEQ ID NO: 4) (designed binder)
chain: B1 chain with Q28H
notes: hNGAL (lipocalin 2) mutein
B3: lipocalin mutein SEQ ID NO: 94 (designed binder)
chain: QDSTSDLIPAPPLSKVPLQQNFQDNQFQGKWYVVGLAGNRILRQDQHPMPMYATIYELKEDKSYQVTSVISSHKKCLYPIATFVPGSQPGEFTLGNIKSYGDKVSYLVRVVSTNYNQHAMVFFKYADRNFESFSITLYGRTKELTSELKENFIRFSKSLGLPENHIVFPVPIDQCIDG
B4: lipocalin mutein SEQ ID NO: 61 (designed binder)
chain: B1 chain with D44L, K98R, W104T, S128T
B5: lipocalin mutein SEQ ID NO: 65 (designed binder)
chain: QDSTSDLIPAPPLSKVPLQQNFQDNQFQGKWYVVGLAGNRILRDDQHPMPMYATIYELKEDKSYQVTSVISSHKKCLYPIATFVPGSQPGEFTLGNIKSYGDKWSYLVRVVSTNYNQHAMVFFKHADSNYESFSITLYGRTKELTSELKENFIRFSKSLGLPENHIVFPVPIDQCIDGSAWSHPQFEK
B6: lipocalin mutein SEQ ID NO: 66 (designed binder)
chain: B5 chain with D44L, K98R, W104T, S128T

The first experiment deals with T1, human CTLA-4 on transfected CHO-K1 cells (human, UniProt P16410 36-223).
T1 construct: whole, on cells; also called CHO: CTLA-4; human CTLA-4 expressing CHO cells
T1 sequence (P16410 36-223): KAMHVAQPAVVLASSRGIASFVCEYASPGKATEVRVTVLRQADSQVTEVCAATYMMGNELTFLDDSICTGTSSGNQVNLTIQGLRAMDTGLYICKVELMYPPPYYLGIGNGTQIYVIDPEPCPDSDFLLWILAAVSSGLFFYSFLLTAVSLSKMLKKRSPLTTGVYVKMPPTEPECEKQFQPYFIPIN
As to the kind of experiment: FACS competition: inhibition of 20 nM biotinylated CD80/B7.1 binding to CTLA-4-transfected CHO-K1 cells.
Broadly, the EC50 is the concentration giving half of the maximal effect. The low end stands for a more potent agent, the high end for a less potent agent. B1 had an EC50 of 6 nM.

The molecule B2 registered an EC50 of 7.6 nM.

As for B3, the EC50 was 13.4 nM.

Consider B4, for which a half-maximal response (EC50) required 9.3 nM.

B5 gave an EC50 of 7.8 nM.

Consider B6, for which it took 7.4 nM to reach a half-maximal effect (EC50).

The target in a further experiment is T2, Human CTLA-4-Fc (Chimerigen, CHI-HF-210A4-M001) (human, UniProt P16410 37-162).
T2 construct: Bought protein; also called hCTLA-4; not shown: Fc part of the bought fusion
T2 sequence (P16410 37-162 limits assumed, change not shown): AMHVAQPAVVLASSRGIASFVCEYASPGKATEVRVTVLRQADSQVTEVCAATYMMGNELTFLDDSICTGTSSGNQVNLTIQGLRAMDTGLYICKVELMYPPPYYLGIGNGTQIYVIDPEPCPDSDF
Briefly: SPR (Biacore T200), human CTLA-4-Fc captured by anti-human IgG-Fc, mutein as analyte, 1:1 fit. On the technique in general: Surface plasmon resonance follows binding to a sensor surface in real time, without labels.
The Kd is a measure of binding affinity in units of concentration. Read a low Kd as a tighter complex. As usually defined, the koff is the first-order rate constant of dissociation. Higher therefore signals a short-lived complex. What is called kon is the rate constant with which the complex forms. A lower kon goes with slower complex formation. The molecule B1 gave a Kd of 0.36 nM, a koff of 0.00027 s⁻¹ and a kon of 750000 M⁻¹ s⁻¹.

With B2, the affinity, expressed as Kd, was 0.35 nM; the koff was found to be 0.00022 s⁻¹; the kon came out at 640000 M⁻¹ s⁻¹.

The molecule B3 gave a Kd of 1.8 nM, a koff of 0.00061 s⁻¹ and a kon of 340000 M⁻¹ s⁻¹.

In the case of B4, the affinity, expressed as Kd, was 0.94 nM; the koff came out at 0.00072 s⁻¹; the kon worked out at 770000 M⁻¹ s⁻¹.

The molecule B5 showed a Kd of 0.62 nM, a koff of 0.00044 s⁻¹ and a kon of 710000 M⁻¹ s⁻¹.

B6 returned a Kd of 1.8 nM, a koff of 0.0013 s⁻¹ and a kon of 750000 M⁻¹ s⁻¹.

A further experiment addresses T1, human CTLA-4 on transfected CHO-K1 cells. As to the kind of experiment: FACS competition on human CTLA-4-transfected CHO cells; blocked ligand 20 nM biotinylated human B7.1 Fc, detected with streptavidin-PE.
As to B2, the “IC50 (read off the curve)” value was roughly 20 nM.

A further experiment has the same target. As to the kind of experiment: FACS competition on human CTLA-4-transfected CHO cells; blocked ligand 20 nM biotinylated human B7.1, streptavidin-phycoerythrin.
B3: the “IC50 (read off the curve)” value lay within 10 to 20 nM.

Another experiment has the same target. As to the kind of experiment: FACS competition: inhibition of 20 nM B7.1 Fc-bio binding to human CTLA-4-transfected CHO cells.
By IC50 is commonly meant the concentration at which inhibition is half-maximal. Read a high IC50 as lower potency. As for B2, the IC50 worked out at 23 nM.
